*1 amine or outer side, *2 acyl side, *3 side chain or, on linkers, in order; H or OH if unused. Side-chain parts run from the residue outwards. The star is where a group is joined. C18 diacid = O=C(O)CCCCCCCCCCCCCCCCC(=O)*; γGlu = O=C(O)[C@H](CCC(=O)[*:2])N[*:1]; Isovaleryl = CC(C)CC(=O)*; Ahx = NCCCCCC(=O)O
T1: human NPY2 receptor (human, UniProt P49146 1-381)
T1 construct: whole, on cells; also called hNPY2-R; hNPY2R
T1 sequence (looked up): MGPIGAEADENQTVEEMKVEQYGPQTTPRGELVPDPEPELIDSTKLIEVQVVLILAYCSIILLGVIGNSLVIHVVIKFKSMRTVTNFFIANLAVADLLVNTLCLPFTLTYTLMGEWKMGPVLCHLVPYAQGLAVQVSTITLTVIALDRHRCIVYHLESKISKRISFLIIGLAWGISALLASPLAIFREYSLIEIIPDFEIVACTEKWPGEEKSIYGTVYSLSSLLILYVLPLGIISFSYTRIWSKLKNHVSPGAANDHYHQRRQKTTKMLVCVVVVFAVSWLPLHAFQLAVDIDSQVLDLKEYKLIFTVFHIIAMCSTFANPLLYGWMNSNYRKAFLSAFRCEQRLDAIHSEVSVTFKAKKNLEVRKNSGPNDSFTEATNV

B1: Compound 177 (peptide)
peptide: Isovaleryl-APEK([Ahx-γGlu-C18 diacid])PEEDATPEELQQYYVSLRHYYNWLTRQRY-NH2
SMILES: CC(C)CC(=O)N[C@@H](C)C(=O)N1CCC[C@H]1C(=O)N[C@@H](CCC(=O)O)C(=O)N[C@@H](CCCCNC(=O)CCCCCNC(=O)CC[C@H](NC(=O)CCCCCCCCCCCCCCCCC(=O)O)C(=O)O)C(=O)N1CCC[C@H]1C(=O)N[C@@H](CCC(=O)O)C(=O)N[C@@H](CCC(=O)O)C(=O)N[C@@H](CC(=O)O)C(=O)N[C@@H](C)C(=O)N[C@H](C(=O)N1CCC[C@H]1C(=O)N[C@@H](CCC(=O)O)C(=O)N[C@@H](CCC(=O)O)C(=O)N[C@@H](CC(C)C)C(=O)N[C@@H](CCC(N)=O)C(=O)N[C@@H](CCC(N)=O)C(=O)N[C@@H](Cc1ccc(O)cc1)C(=O)N[C@@H](Cc1ccc(O)cc1)C(=O)N[C@H](C(=O)N[C@@H](CO)C(=O)N[C@@H](CC(C)C)C(=O)N[C@@H](CCCNC(=N)N)C(=O)N[C@@H](Cc1c[nH]cn1)C(=O)N[C@@H](Cc1ccc(O)cc1)C(=O)N[C@@H](Cc1ccc(O)cc1)C(=O)N[C@@H](CC(N)=O)C(=O)N[C@@H](Cc1c[nH]c2ccccc12)C(=O)N[C@@H](CC(C)C)C(=O)N[C@H](C(=O)N[C@@H](CCCNC(=N)N)C(=O)N[C@@H](CCC(N)=O)C(=O)N[C@@H](CCCNC(=N)N)C(=O)N[C@@H](Cc1ccc(O)cc1)C(N)=O)[C@@H](C)O)C(C)C)[C@@H](C)O
B2: Compound 178 (peptide)
peptide: Isovaleryl-APEK([Ahx-γGlu-C18 diacid])PEAAATPEEIQRYYVALRHYYNWLTRQRY-NH2
SMILES: CC[C@H](C)[C@H](NC(=O)[C@H](CCC(=O)O)NC(=O)[C@H](CCC(=O)O)NC(=O)[C@@H]1CCCN1C(=O)[C@@H](NC(=O)[C@H](C)NC(=O)[C@H](C)NC(=O)[C@H](C)NC(=O)[C@H](CCC(=O)O)NC(=O)[C@@H]1CCCN1C(=O)[C@H](CCCCNC(=O)CCCCCNC(=O)CC[C@H](NC(=O)CCCCCCCCCCCCCCCCC(=O)O)C(=O)O)NC(=O)[C@H](CCC(=O)O)NC(=O)[C@@H]1CCCN1C(=O)[C@H](C)NC(=O)CC(C)C)[C@@H](C)O)C(=O)N[C@@H](CCC(N)=O)C(=O)N[C@@H](CCCNC(=N)N)C(=O)N[C@@H](Cc1ccc(O)cc1)C(=O)N[C@@H](Cc1ccc(O)cc1)C(=O)N[C@H](C(=O)N[C@@H](C)C(=O)N[C@@H](CC(C)C)C(=O)N[C@@H](CCCNC(=N)N)C(=O)N[C@@H](Cc1c[nH]cn1)C(=O)N[C@@H](Cc1ccc(O)cc1)C(=O)N[C@@H](Cc1ccc(O)cc1)C(=O)N[C@@H](CC(N)=O)C(=O)N[C@@H](Cc1c[nH]c2ccccc12)C(=O)N[C@@H](CC(C)C)C(=O)N[C@H](C(=O)N[C@@H](CCCNC(=N)N)C(=O)N[C@@H](CCC(N)=O)C(=O)N[C@@H](CCCNC(=N)N)C(=O)N[C@@H](Cc1ccc(O)cc1)C(N)=O)[C@@H](C)O)C(C)C
B3: Compound 179 (peptide)
peptide: Isovaleryl-APEK([Ahx-γGlu-C18 diacid])PEADASPEETQRYYVALRHYYNWLTRQRY-NH2
SMILES: CC(C)CC(=O)N[C@@H](C)C(=O)N1CCC[C@H]1C(=O)N[C@@H](CCC(=O)O)C(=O)N[C@@H](CCCCNC(=O)CCCCCNC(=O)CC[C@H](NC(=O)CCCCCCCCCCCCCCCCC(=O)O)C(=O)O)C(=O)N1CCC[C@H]1C(=O)N[C@@H](CCC(=O)O)C(=O)N[C@@H](C)C(=O)N[C@@H](CC(=O)O)C(=O)N[C@@H](C)C(=O)N[C@@H](CO)C(=O)N1CCC[C@H]1C(=O)N[C@@H](CCC(=O)O)C(=O)N[C@@H](CCC(=O)O)C(=O)N[C@H](C(=O)N[C@@H](CCC(N)=O)C(=O)N[C@@H](CCCNC(=N)N)C(=O)N[C@@H](Cc1ccc(O)cc1)C(=O)N[C@@H](Cc1ccc(O)cc1)C(=O)N[C@H](C(=O)N[C@@H](C)C(=O)N[C@@H](CC(C)C)C(=O)N[C@@H](CCCNC(=N)N)C(=O)N[C@@H](Cc1c[nH]cn1)C(=O)N[C@@H](Cc1ccc(O)cc1)C(=O)N[C@@H](Cc1ccc(O)cc1)C(=O)N[C@@H](CC(N)=O)C(=O)N[C@@H](Cc1c[nH]c2ccccc12)C(=O)N[C@@H](CC(C)C)C(=O)N[C@H](C(=O)N[C@@H](CCCNC(=N)N)C(=O)N[C@@H](CCC(N)=O)C(=O)N[C@@H](CCCNC(=N)N)C(=O)N[C@@H](Cc1ccc(O)cc1)C(N)=O)[C@@H](C)O)C(C)C)[C@@H](C)O
B4: Compound 180 (peptide)
peptide: Isovaleryl-APEK([Ahx-γGlu-C18 diacid])PEEDATPEELQRYYVSLRHYYNWLTKQRY-NH2
SMILES: CC(C)CC(=O)N[C@@H](C)C(=O)N1CCC[C@H]1C(=O)N[C@@H](CCC(=O)O)C(=O)N[C@@H](CCCCNC(=O)CCCCCNC(=O)CC[C@H](NC(=O)CCCCCCCCCCCCCCCCC(=O)O)C(=O)O)C(=O)N1CCC[C@H]1C(=O)N[C@@H](CCC(=O)O)C(=O)N[C@@H](CCC(=O)O)C(=O)N[C@@H](CC(=O)O)C(=O)N[C@@H](C)C(=O)N[C@H](C(=O)N1CCC[C@H]1C(=O)N[C@@H](CCC(=O)O)C(=O)N[C@@H](CCC(=O)O)C(=O)N[C@@H](CC(C)C)C(=O)N[C@@H](CCC(N)=O)C(=O)N[C@@H](CCCNC(=N)N)C(=O)N[C@@H](Cc1ccc(O)cc1)C(=O)N[C@@H](Cc1ccc(O)cc1)C(=O)N[C@H](C(=O)N[C@@H](CO)C(=O)N[C@@H](CC(C)C)C(=O)N[C@@H](CCCNC(=N)N)C(=O)N[C@@H](Cc1c[nH]cn1)C(=O)N[C@@H](Cc1ccc(O)cc1)C(=O)N[C@@H](Cc1ccc(O)cc1)C(=O)N[C@@H](CC(N)=O)C(=O)N[C@@H](Cc1c[nH]c2ccccc12)C(=O)N[C@@H](CC(C)C)C(=O)N[C@H](C(=O)N[C@@H](CCCCN)C(=O)N[C@@H](CCC(N)=O)C(=O)N[C@@H](CCCNC(=N)N)C(=O)N[C@@H](Cc1ccc(O)cc1)C(N)=O)[C@@H](C)O)C(C)C)[C@@H](C)O
B5: Compound 181 (peptide)
peptide: Isovaleryl-APAK([Ahx-γGlu-C18 diacid])PEADAEPEEIQRYYVALRHYYNWLTRQRY-NH2
SMILES: CC[C@H](C)[C@H](NC(=O)[C@H](CCC(=O)O)NC(=O)[C@H](CCC(=O)O)NC(=O)[C@@H]1CCCN1C(=O)[C@H](CCC(=O)O)NC(=O)[C@H](C)NC(=O)[C@H](CC(=O)O)NC(=O)[C@H](C)NC(=O)[C@H](CCC(=O)O)NC(=O)[C@@H]1CCCN1C(=O)[C@H](CCCCNC(=O)CCCCCNC(=O)CC[C@H](NC(=O)CCCCCCCCCCCCCCCCC(=O)O)C(=O)O)NC(=O)[C@H](C)NC(=O)[C@@H]1CCCN1C(=O)[C@H](C)NC(=O)CC(C)C)C(=O)N[C@@H](CCC(N)=O)C(=O)N[C@@H](CCCNC(=N)N)C(=O)N[C@@H](Cc1ccc(O)cc1)C(=O)N[C@@H](Cc1ccc(O)cc1)C(=O)N[C@H](C(=O)N[C@@H](C)C(=O)N[C@@H](CC(C)C)C(=O)N[C@@H](CCCNC(=N)N)C(=O)N[C@@H](Cc1c[nH]cn1)C(=O)N[C@@H](Cc1ccc(O)cc1)C(=O)N[C@@H](Cc1ccc(O)cc1)C(=O)N[C@@H](CC(N)=O)C(=O)N[C@@H](Cc1c[nH]c2ccccc12)C(=O)N[C@@H](CC(C)C)C(=O)N[C@H](C(=O)N[C@@H](CCCNC(=N)N)C(=O)N[C@@H](CCC(N)=O)C(=O)N[C@@H](CCCNC(=N)N)C(=O)N[C@@H](Cc1ccc(O)cc1)C(N)=O)[C@@H](C)O)C(C)C
B6: Compound 185 (peptide)
peptide: Isovaleryl-APAK([Ahx-γGlu-C18 diacid])PEEDASEEELQRYYVSLRHYYNWLTRQRY-NH2
SMILES: CC(C)CC(=O)N[C@@H](C)C(=O)N1CCC[C@H]1C(=O)N[C@@H](C)C(=O)N[C@@H](CCCCNC(=O)CCCCCNC(=O)CC[C@H](NC(=O)CCCCCCCCCCCCCCCCC(=O)O)C(=O)O)C(=O)N1CCC[C@H]1C(=O)N[C@@H](CCC(=O)O)C(=O)N[C@@H](CCC(=O)O)C(=O)N[C@@H](CC(=O)O)C(=O)N[C@@H](C)C(=O)N[C@@H](CO)C(=O)N[C@@H](CCC(=O)O)C(=O)N[C@@H](CCC(=O)O)C(=O)N[C@@H](CCC(=O)O)C(=O)N[C@@H](CC(C)C)C(=O)N[C@@H](CCC(N)=O)C(=O)N[C@@H](CCCNC(=N)N)C(=O)N[C@@H](Cc1ccc(O)cc1)C(=O)N[C@@H](Cc1ccc(O)cc1)C(=O)N[C@H](C(=O)N[C@@H](CO)C(=O)N[C@@H](CC(C)C)C(=O)N[C@@H](CCCNC(=N)N)C(=O)N[C@@H](Cc1c[nH]cn1)C(=O)N[C@@H](Cc1ccc(O)cc1)C(=O)N[C@@H](Cc1ccc(O)cc1)C(=O)N[C@@H](CC(N)=O)C(=O)N[C@@H](Cc1c[nH]c2ccccc12)C(=O)N[C@@H](CC(C)C)C(=O)N[C@H](C(=O)N[C@@H](CCCNC(=N)N)C(=O)N[C@@H](CCC(N)=O)C(=O)N[C@@H](CCCNC(=N)N)C(=O)N[C@@H](Cc1ccc(O)cc1)C(N)=O)[C@@H](C)O)C(C)C

Molecular target: T1, human NPY2 receptor
Test: RLB: displacement of 125I-PYY(1-36) from hNPY2R membranes

| Binder | Ki |
| --- | --- |
| B1 | 8.65 nM |
| B2 | 3.39 nM |
| B3 | 0.89 nM |
| B4 | 15.1 nM |
| B5 | 1.33 nM |
| B6 | 2.06 nM |
